# From US20240116985A1 (published 2024)
# Starred links: 1 amine or outer side, 2 acyl side, 3 side chain; linkers in the order of their positions; H or OH if unused. Positions of bridges follow the written chain, without caps; N, C: chain ends. Non-standard residues stand in square brackets, D forms with d. Primed or numbered codes have the meaning given here. *: point of attachment. PyrS2″ = (S)-3-amino-1-((pent-4-en-1-yloxy)carbonyl)pyrrolidine-3-carboxylic acid (stapling residue), C=CCCCOC(=O)N1CC[C@@](N[*:1])(C(=O)[*:2])C1; B5(4) = 2,2-bis(4-pentenyl)glycine = 2-amino-2-(pent-4-en-1-yl)hept-6-enoic acid (stitching residue), C=CCCCC(CCCC=C)(N[*:1])C(=O)[*:2]; B5 = 2-amino-2-(pent-4-en-1-yl)hept-6-enoic acid, C=CCCCC(CCCC=C)(N[*:1])C(=O)[*:2]; Phe(3-COOH) = N[C@@H](Cc1cccc(C(=O)O)c1)C(=O)O; 2F3MeF = Cc1cccc(C[C@H](N[*:1])C(=O)[*:2])c1F; Bta = N[C@@H](Cc1csc2ccccc12)C(=O)O; Lys(iPr) = CC(C)NCCCC[C@H](N)C(=O)O; hTyr = N[C@@H](CCc1ccc(O)cc1)C(=O)O; αAllylPro = C=CC[C@@]1(C(=O)O)CCCN1; Azidoacetyl = [N-]=[N+]=NCC(=O)*; tBuAla = CC(C)(C)C[C@H](N)C(=O)O; 3Thi = N[C@@H](Cc1ccsc1)C(=O)O; Cha = N[C@@H](CC1CCCCC1)C(=O)O; S8 = C=CCCCCCC[C@](C)(N)C(=O)O; Nicotinoyl = O=C(c1cccnc1)*; Picolinoyl = O=C(c1ccccn1)*; PyrS2(4) = not defined here; hSer = N[C@@H](CCO)C(=O)O; PhAc = O=C(Cc1ccccc1)*
# T1: Bcat-Halo (UniProt P35222 1-781)
# T1 sequence (looked up): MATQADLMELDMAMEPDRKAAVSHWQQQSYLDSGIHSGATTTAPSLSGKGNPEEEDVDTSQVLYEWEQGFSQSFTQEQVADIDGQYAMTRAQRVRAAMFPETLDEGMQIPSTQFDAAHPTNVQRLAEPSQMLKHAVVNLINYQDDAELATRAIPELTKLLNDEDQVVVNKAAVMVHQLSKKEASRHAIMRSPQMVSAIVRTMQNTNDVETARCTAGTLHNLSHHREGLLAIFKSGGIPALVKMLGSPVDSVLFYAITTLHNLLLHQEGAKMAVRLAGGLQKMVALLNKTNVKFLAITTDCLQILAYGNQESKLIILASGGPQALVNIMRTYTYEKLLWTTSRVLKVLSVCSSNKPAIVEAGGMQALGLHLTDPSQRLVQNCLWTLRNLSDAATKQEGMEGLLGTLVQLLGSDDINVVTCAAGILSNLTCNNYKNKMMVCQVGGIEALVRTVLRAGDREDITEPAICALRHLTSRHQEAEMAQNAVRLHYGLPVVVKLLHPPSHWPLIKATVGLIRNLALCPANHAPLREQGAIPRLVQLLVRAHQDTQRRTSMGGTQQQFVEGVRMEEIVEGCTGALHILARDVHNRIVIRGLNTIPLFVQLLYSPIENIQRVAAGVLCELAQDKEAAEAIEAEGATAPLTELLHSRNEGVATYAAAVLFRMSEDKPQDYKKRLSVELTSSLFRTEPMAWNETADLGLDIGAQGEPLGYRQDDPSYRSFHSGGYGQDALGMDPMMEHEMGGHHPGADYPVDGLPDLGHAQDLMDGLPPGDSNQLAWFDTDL
# T2: full-length beta-Catenin (Uniprot ID P35222) (Homo sapiens (Human), UniProt P35222 1-781)
# T2 construct: The assay text says 'full-length beta-Catenin (Uniprot ID P35222)'; also called bCat; B-Catenin
# T2 sequence: T1 sequence (looked up)
# B1: I-2115 (peptide)
# peptide: Ac-[αAllylPro]D[tBuAla][B5(4)]D[hTyr]AA[Phe(3-COOH)]N[PyrS2″][3Thi][Bta]Q-NH2
# modifications: staple 1-4, 4-11; also: later eluting HPLC isomer composition
# B2: I-2114 (peptide)
# peptide: Ac-[αAllylPro]D[tBuAla][B5(4)]D[hTyr]AA[Phe(3-COOH)]N[PyrS2″][3Thi][Bta]Q-NH2
# modifications: staple 1-4, 4-11; also: earlier eluting HPLC isomer composition
# B3: I-2110 (peptide)
# peptide: Ac-[αAllylPro]N[Cha][B5(4)]DQ[Lys(iPr)]AFN[PyrS2″]F[Bta]K-NH2
# modifications: staple 1-4, 4-11
# B4: I-2102 (peptide)
# peptide: Ac-[αAllylPro]N[Cha][B5(4)]DQ[Lys(iPr)]AF[Lys(iPr)][PyrS2″]F[Bta][hSer]-NH2
# modifications: staple 1-4, 4-11
# B5: I-2097 (peptide)
# peptide: Ac-[αAllylPro]D[tBuAla][B5(4)]D[Phe(3-COOH)]A[dA]FL[PyrS2″][3Thi][Bta]A-NH2
# modifications: staple 1-4, 4-11; also: later-eluting HPLC isomer composition
# B6: I-2109 (peptide)
# peptide: Ac-[αAllylPro]N[Cha][B5(4)]DQ[Lys(iPr)]AFN[PyrS2″]F[Bta]H-NH2
# modifications: staple 1-4, 4-11
# B7: I-2117 (peptide)
# peptide: Ac-[αAllylPro]D[tBuAla][B5(4)]D[hTyr]AA[Phe(3-COOH)][hSer][PyrS2″][3Thi][Bta]Q-NH2
# modifications: staple 1-4, 4-11; also: later eluting HPLC isomer composition
# B8: I-2098 (peptide)
# peptide: Ac-[αAllylPro]D[tBuAla][B5(4)]D[Phe(3-COOH)]A[dA]FL[PyrS2″][2F3MeF][Bta]A-NH2
# modifications: staple 1-4, 4-11; also: earlier-eluting HPLC isomer composition
# B9: I-2116 (peptide)
# peptide: Ac-[αAllylPro]D[tBuAla][B5(4)]D[hTyr]AA[Phe(3-COOH)][hSer][PyrS2″][3Thi][Bta]Q-NH2
# modifications: staple 1-4, 4-11; also: earlier eluting HPLC isomer composition
# B10: I-2100 (peptide)
# peptide: Ac-[αAllylPro]D[tBuAla][B5(4)]D[Phe(3-COOH)]A[dA]FL[PyrS2″][3Thi][Bta][dA]-NH2
# modifications: staple 1-4, 4-11
# B11: I-2118 (peptide)
# peptide: Ac-[αAllylPro]D[tBuAla][B5(4)]DHAA[Phe(3-COOH)]N[PyrS2″][3Thi][Bta]Q-NH2
# modifications: staple 1-4, 4-11; also: earlier eluting HPLC isomer composition
# B12: I-2122 (peptide)
# peptide: Ac-[αAllylPro]D[tBuAla][B5(4)]DHAA[Phe(3-COOH)]L[PyrS2″][3Thi][Bta]Q-NH2
# modifications: staple 1-4, 4-11; also: earlier eluting HPLC isomer composition
# B13: I-2096 (peptide)
# peptide: Ac-[αAllylPro]D[tBuAla][B5(4)]D[Phe(3-COOH)]A[dA]FL[PyrS2″][3Thi][Bta]A-NH2
# modifications: staple 1-4, 4-11; also: earlier-eluting HPLC isomer composition
# B14: I-2119 (peptide)
# peptide: Ac-[αAllylPro]D[tBuAla][B5(4)]DHAA[Phe(3-COOH)]N[PyrS2″][3Thi][Bta]Q-NH2
# modifications: staple 1-4, 4-11; also: later eluting HPLC isomer composition
# B15: I-2121 (peptide)
# peptide: Ac-[αAllylPro]D[tBuAla][B5(4)]DHAA[Phe(3-COOH)][hSer][PyrS2″][3Thi][Bta]Q-NH2
# modifications: staple 1-4, 4-11; also: later eluting HPLC isomer composition
# B16: I-2111 (peptide)
# peptide: Ac-[αAllylPro]N[Cha][B5(4)]DQ[Lys(iPr)]AFN[PyrS2″]F[Bta]N-NH2
# modifications: staple 1-4, 4-11
# B17: I-2120 (peptide)
# peptide: Ac-[αAllylPro]D[tBuAla][B5(4)]DHAA[Phe(3-COOH)][hSer][PyrS2(4)][3Thi][Bta]Q-NH2
# modifications: staple 1-4, 4-11; reading uncertain; also: earlier eluting HPLC isomer composition, printed as Ac-PL3-Asp-Npg-B5-Asp-His-Ala-Ala-3COOHF-Hse-PyrS2-3Thi-BztA-Gln-NH2
# B18: I-599 (peptide)
# peptide: Picolinoyl-[αAllylPro]DI[B5]DEAAFQ[S8]F[Bta]Q-NH2
# modifications: staple 1-4, 4-11
# notes: Stapled peptide composition; N-terminal cap Pic
# B19: I-597 (peptide)
# peptide: Ac-[αAllylPro]DI[B5]DEAAFQ[S8]F[Bta]QK(Azidoacetyl)-NH2
# modifications: staple 1-4, 4-11; not fully specified
# notes: Stapled peptide composition; same description as I-596, later eluting HPLC peak (staple isomer)
# B20: I-596 (peptide)
# peptide: XDIXDEAAFQXFXQK
# modifications: not fully specified; Ac-PL3-Asp-Ile-B5-Asp-Glu-Ala-Ala-Phe-Gln-S8-Phe-BztA-Gln-[AzAc]Lys-NH2; stapled PL3(1)-B5(4) and B5(4)-S8(11) by olefin metathesis
# notes: Stapled peptide composition
# B21: I-602 (peptide)
# peptide: XDIXDEAAFQXFXQ
# modifications: 2PyPrpc-PL3-Asp-Ile-B5-Asp-Glu-Ala-Ala-Phe-Gln-S8-Phe-BztA-Gln-NH2; stapled PL3(1)-B5(4) and B5(4)-S8(11) by olefin metathesis
# notes: Stapled peptide composition; N-terminal cap 2PyPrpc
# B22: I-600 (peptide)
# peptide: PhAc-[αAllylPro]DI[B5]DEAAFQ[S8]F[Bta]Q-NH2
# modifications: staple 1-4, 4-11
# notes: Stapled peptide composition; N-terminal cap Bnc
# B23: I-598 (peptide)
# peptide: Nicotinoyl-[αAllylPro]DI[B5]DEAAFQ[S8]F[Bta]Q-NH2
# modifications: staple 1-4, 4-11
# notes: Stapled peptide composition; N-terminal cap Nic
# B24: I-591 (peptide)
# peptide: Ac-[αAllylPro]DI[B5(4)]DEK(Azidoacetyl)AFQ[S8]F[Bta]Q-NH2
# modifications: staple 1-4, 4-11; not fully specified; printed as Ac-PL3-Asp-Ile-B5-Asp-Glu-[AzAc]Lys-Ala-Phe-Gln-S8-Phe-BztA-Gln-NH2
# notes: Stapled peptide composition
# B25: I-590 (peptide)
# peptide: Ac-[αAllylPro]DK(Azidoacetyl)[B5(4)]DEAAFQ[S8]F[Bta]Q-NH2
# modifications: staple 1-4, 4-11; not fully specified
# notes: Stapled peptide composition
# B26: I-595 (peptide)
# peptide: Ac-[αAllylPro]DI[B5]DEAAFQ[S8]F[Bta]K(Azidoacetyl)-NH2
# modifications: staple 1-4, 4-11
# notes: Stapled peptide composition
# B27: I-592 (peptide)
# peptide: Ac-[αAllylPro]DI[B5]DEK(Azidoacetyl)AFQ[S8]F[Bta]Q-NH2
# modifications: staple 1-4, 4-11; not fully specified
# notes: Stapled peptide composition
# B28: I-594 (peptide)
# peptide: Ac-[αAllylPro]DI[B5]DEAAFK(Azidoacetyl)[S8]F[Bta]Q-NH2
# modifications: staple 1-4, 4-11
# notes: Stapled peptide composition
# B29: I-603 (peptide)
# peptide: Ac-[αAllylPro]DI[B5]DQAAFQ[S8]F[Bta]Q-NH2
# modifications: staple 1-4, 4-11
# notes: Stapled peptide composition
# B30: I-589 (peptide)
# peptide: XDKXDEAAFQXFXQ
# modifications: not fully specified; Ac-PL3-Asp-[AzAc]Lys-B5-Asp-Glu-Ala-Ala-Phe-Gln-S8-Phe-BztA-Gln-NH2; stapled PL3(1)-B5(4) and B5(4)-S8(11) by olefin metathesis
# notes: Stapled peptide composition; same description as I-590, earlier eluting HPLC peak (staple isomer)
# B31: I-593 (peptide)
# peptide: Ac-[αAllylPro]DI[B5]DEAK(Azidoacetyl)FQ[S8]F[Bta]Q-NH2
# modifications: staple 1-4, 4-11
# notes: Stapled peptide composition
# B32: I-601 (peptide)
# peptide: XDIXDEAAFQXFXQ
# modifications: Bnc-PL3-Asp-Ile-B5-Asp-Glu-Ala-Ala-Phe-Gln-S8-Phe-BztA-Gln-NH2; stapled PL3(1)-B5(4) and B5(4)-S8(11) by olefin metathesis
# notes: Stapled peptide composition; N-terminal cap Bnc; same description as I-600, later eluting HPLC peak (staple isomer)
# Molecular target: T1, Bcat-Halo
# Assay: cell-based or functional assay
row,NanoBRET Abs IC50 [nM],Binder
1,> 20000,B1
2,> 20000,B2
3,> 20000,B3
4,> 20000,B4
5,22300,B5
6,> 20000,B6
7,> 20000,B7
8,> 20000,B8
9,33400,B9
10,> 20000,B10
11,> 20000,B11
12,34400,B12
13,> 20000,B13
14,> 20000,B14
15,> 20000,B15
16,> 20000,B16
17,37200,B17

# Molecular target: T2, full-length beta-Catenin (Uniprot ID …)
# Assay: fluorescence polarization competition; full-length beta-catenin, competitor 5FAM-TCF4(10-53) probe
# Method: The plate was incubated protected from light for 60 minutes at 20° C. prior to read. Reads were performed on a CLARIOstar plate reader (BMG Labtech) in duplicate, and data were fitted to a 1:1 binding model with hill slope using an in-house script. All provided concentrations are final concentrations.
row,EC50 [nM],Binder
1,138,B18
2,76,B19
3,112,B20
4,3150,B21
5,796,B22
6,845,B23
7,64,B24
8,45,B25
9,57,B26
10,24,B27
11,87,B28
12,392,B29
13,48,B30
14,68,B31
15,419,B32
